According to publication PMC12493166, “The ClpA chaperone and the two adaptor proteins modulate the fate of the model substrate tagged with a SsrA-degron of Leptospira” (Biochemical Journal, 2025):

Legend:
LinClpA [1] = molecular target: T1, LinClpA (Leptospira interrogans, UniProt Q8F4D7); experiment: ANS fluorescence change on oligomerization; type: binding; conditions: 2 mM nucleotide, 3 μM protein, 10 μM ANS, 8 mM MgCl2, pH 7.8; indirect, oligomerization read-out
T1 construct: gene clpA; full length, 740 residues, C-terminal 6xHis tag (pET-23a), E. coli BL21 (DE3), Ni-NTA; monomer ~82 kDa, ~492 kDa oligomer with ATP
T1 sequence (Q8F4D7 19-758): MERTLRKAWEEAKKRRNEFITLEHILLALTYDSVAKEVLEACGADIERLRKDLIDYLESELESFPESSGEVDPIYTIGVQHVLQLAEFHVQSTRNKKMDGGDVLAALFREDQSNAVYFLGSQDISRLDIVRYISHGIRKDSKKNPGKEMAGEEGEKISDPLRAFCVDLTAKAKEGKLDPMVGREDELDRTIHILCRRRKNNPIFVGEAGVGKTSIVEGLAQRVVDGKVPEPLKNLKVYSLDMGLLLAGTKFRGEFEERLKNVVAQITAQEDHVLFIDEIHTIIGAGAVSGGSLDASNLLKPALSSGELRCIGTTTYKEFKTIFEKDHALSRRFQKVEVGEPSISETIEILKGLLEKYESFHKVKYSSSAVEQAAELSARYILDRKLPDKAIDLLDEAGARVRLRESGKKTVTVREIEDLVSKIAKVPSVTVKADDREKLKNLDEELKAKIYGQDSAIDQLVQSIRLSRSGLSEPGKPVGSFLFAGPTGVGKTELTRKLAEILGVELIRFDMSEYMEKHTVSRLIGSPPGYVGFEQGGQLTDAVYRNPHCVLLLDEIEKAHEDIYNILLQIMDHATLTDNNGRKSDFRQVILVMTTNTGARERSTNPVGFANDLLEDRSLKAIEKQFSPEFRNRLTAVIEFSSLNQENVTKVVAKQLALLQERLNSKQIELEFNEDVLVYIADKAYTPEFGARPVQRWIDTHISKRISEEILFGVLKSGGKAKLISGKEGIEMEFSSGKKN

[2] = molecular target: LinClpP1 (ClpP1 isoform of the Clp protease of Leptospira interrogans) (L. interrogans) (UniProt Q72SG6); experiment: ELISA; LinClpP1, LinClpP2, LinClpS1 or LinClpS2 (1 μM/well) coated overnight at 4°C; blocked with 3% BSA in PBS; ATP-bound LinClpA or LinClpA^∆N (0–3 μM) overlaid 2 hours at 37°C; detected with mouse anti-LinClpA; Kd by Hill plot analysis
[3] = molecular target: LinClpP2 (ClpP2 isoform of the Clp protease of Leptospira interrogans) (L. interrogans) (UniProt Q72R01); experiment: as above
ClpS (Escherichia coli) = ClpS (Escherichia coli) (UniProt P0A8Q6); conditions: cited from earlier work
LinClpA [4] = molecular target: T1, LinClpA; experiment: ANS fluorescence change on oligomerization; type: binding; conditions: 2 mM nucleotide, 3 μM protein, 10 μM ANS, 8 mM MgCl2, pH 7.8; indirect, oligomerization read-out; remark: listed apart in the source
Procedure: ANS fluorescence change on oligomerization on LinClpA | pre-incubation of LinClpA with ADP, PolyP or ATP led to reductions in ANS fluorescence

[5] = molecular target: LinClpS1 (Clp adaptor protein ClpS1 of Leptospira interrogans) (L. interrogans serovar Copenhageni strain Fiocruz L1-130)
[6] = molecular target: LinClpS2 (Clp adaptor protein ClpS2 of Leptospira interrogans) (L. interrogans serovar Copenhageni strain Fiocruz L1-130) (UniProt Q72RD1)
LinClpS2 (Clp adaptor protein ClpS2 of Leptospira interrogans) (L. interrogans serovar Copenhageni strain Fiocruz L1-130), sequence (Q72RD1 whole entry): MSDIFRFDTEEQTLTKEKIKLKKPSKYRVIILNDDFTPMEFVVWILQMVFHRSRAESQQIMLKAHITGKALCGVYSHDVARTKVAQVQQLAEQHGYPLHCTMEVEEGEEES

[7] = molecular target: LinClpS1 (Clp adaptor protein ClpS1 of Leptospira interrogans) (L. interrogans serovar Copenhageni strain Fiocruz L1-130); remark: listed apart in the source
[8] = molecular target: LinClpS2 (Clp adaptor protein ClpS2 of Leptospira interrogans) (L. interrogans serovar Copenhageni strain Fiocruz L1-130) (UniProt Q72RD1); remark: listed apart in the source
[9] = molecular target: LinClpA (ClpA ATPase chaperone of Leptospira interrogans) (L. interrogans serovar Copenhageni strain Fiocruz L1-130); experiment: ANS dye-binding fluorescence; LinClpA (3 μM) pre-incubated with ATP, GTP, CTP, UTP, ADP or PolyP (2 mM) 20 minutes at 4°C, then ANS (10 μM); excitation 350 nm, emission 400-750 nm; less ANS fluorescence read as oligomerization
[10] = molecular target: LinClpS1 (Clp adaptor protein ClpS1 of Leptospira interrogans) (L. interrogans serovar Copenhageni strain Fiocruz L1-130); experiment: ELISA; LinClpP1, LinClpP2, LinClpS1 or LinClpS2 (1 μM/well) coated overnight at 4°C; blocked with 3% BSA in PBS; ATP-bound LinClpA or LinClpA^∆N (0–3 μM) overlaid 2 hours at 37°C; detected with mouse anti-LinClpA; Kd by Hill plot analysis
[11] = molecular target: LinClpS2 (Clp adaptor protein ClpS2 of Leptospira interrogans) (L. interrogans serovar Copenhageni strain Fiocruz L1-130) (UniProt Q72RD1); experiment: as above
LinClpA [12] = molecular target: T1, LinClpA; experiment: malachite green phosphate release; type: biochemical; conditions: 8 mM Mg2+, pH 7.8, 37°C, 1 μM enzyme
LinClpA [13] = molecular target: T1, LinClpA; experiment: ANS fluorescence change on oligomerization (also size-exclusion chromatography); type: binding; conditions: 2 mM nucleotide, 3 μM protein, 10 μM ANS, 8 mM MgCl2, pH 7.8; indirect, oligomerization read-out

ClpA, sequence (P0ABH9 whole entry): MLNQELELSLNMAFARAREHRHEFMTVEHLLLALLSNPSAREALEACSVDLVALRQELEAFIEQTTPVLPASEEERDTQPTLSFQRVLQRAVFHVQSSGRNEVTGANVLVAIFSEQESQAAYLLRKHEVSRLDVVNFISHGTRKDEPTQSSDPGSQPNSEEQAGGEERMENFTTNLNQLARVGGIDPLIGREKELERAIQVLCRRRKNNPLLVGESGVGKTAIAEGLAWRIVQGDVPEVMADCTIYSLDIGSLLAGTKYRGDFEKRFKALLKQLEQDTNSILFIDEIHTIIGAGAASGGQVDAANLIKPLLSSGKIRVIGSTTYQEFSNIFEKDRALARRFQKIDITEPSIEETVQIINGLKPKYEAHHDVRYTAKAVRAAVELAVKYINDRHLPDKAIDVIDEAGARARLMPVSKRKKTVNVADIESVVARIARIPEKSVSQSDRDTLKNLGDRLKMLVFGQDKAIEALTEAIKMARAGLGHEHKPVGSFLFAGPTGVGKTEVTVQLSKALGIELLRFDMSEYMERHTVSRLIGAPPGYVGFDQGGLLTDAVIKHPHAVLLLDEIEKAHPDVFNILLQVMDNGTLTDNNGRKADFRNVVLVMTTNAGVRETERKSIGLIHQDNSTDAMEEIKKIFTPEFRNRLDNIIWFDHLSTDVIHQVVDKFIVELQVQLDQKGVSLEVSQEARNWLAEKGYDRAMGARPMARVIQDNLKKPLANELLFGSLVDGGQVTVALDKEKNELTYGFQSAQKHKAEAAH

In the case of O=c1ccn([C@@H]2O[C@H](COP(=O)(O)OP(=O)(O)OP(=O)(O)O)[C@@H](O)[C@H]2O)c(=O)[nH]1 [UTP], the “ANS fluorescence change on oligomerization” value (“ANS fluorescence change” below) (LinClpA [1]) is reported as “can interact with various nucleotides, including GTP, CTP and UTP, in addition to ATP”.
Work on “LinClpA^∆N (N-domain-deleted variant of LinClpA) (domain or fragment)” yielded a Kd [2] of 280 nM and a Kd [3] of 280 nM.
In the case of Nc1ccn([C@@H]2O[C@H](COP(=O)(O)OP(=O)(O)OP(=O)(O)O)[C@@H](O)[C@H]2O)c(=O)n1 [CTP], the “ANS fluorescence change” value (LinClpA [1]) is reported as “can interact with various nucleotides, including GTP, CTP and UTP, in addition to ATP”.
In the case of ClpA (from UniProt P0ABH9), the Kd (ClpS (Escherichia coli)) is given as 330 nM.
For Nc1nc2c(ncn2[C@@H]2O[C@H](COP(=O)(O)OP(=O)(O)OP(=O)(O)O)[C@@H](O)[C@H]2O)c(=O)[nH]1 [GTP], the “ANS fluorescence change” value (LinClpA [1]) was “can interact with various nucleotides, including GTP, CTP and UTP, in addition to ATP”.
For Nc1ncnc2c1ncn2[C@@H]1O[C@H](COP(=O)(O)OP(=O)(O)O)[C@@H](O)[C@H]1O [ADP], the “ANS fluorescence, % of pure LinClpA” value (LinClpA [4]) was 65%.
Work on “LinClpA (ClpA ATPase chaperone of Leptospira interrogans) (enzyme)” yielded an ATPase activity of LinClpA (1 μM, malachite green) with LinClpS1 1–10 μM; dose-dependent inhibition; percent reduction at 10 μM [5] of 57 % reduction, an ATPase activity of LinClpA (1 μM, malachite green) with LinClpS2 1–10 μM; dose-dependent inhibition; percent reduction at 10 μM [6] of 90 % reduction and a degradation of eGFP-SsrA (2 μM) by the LinClpAP1P2 machinery (3 µM) after 60 minutes with LinClpS1 5, 10 and 15 µM, percent of the machinery without adaptor; value at 5 µM; total suppression at 15 µM (% of LinClpAP1P2 activity) [7] of 53. It also gave a degradation of eGFP-SsrA (2 μM) by the LinClpAP1P2 machinery (3 µM) after 60 minutes with LinClpS2 5, 10 and 15 µM, percent of the machinery without adaptor; value at 5 µM; total suppression at 10 µM (% of LinClpAP1P2 activity) [8] of 39, an ANS fluorescence intensity with ADP, percent of pure LinClpA [9] of 65% and an ANS fluorescence intensity with ATP, percent of pure LinClpA [9] of 50%. The ANS fluorescence intensity with PolyP, percent of pure LinClpA [9] was 55%, the Kd [2] was 280 nM and the Kd [3] was 280 nM. The Kd [10] was 440 nM and the Kd [11] was 320 nM.
With Nc1ncnc2c1ncn2[C@@H]1O[C@H](COP(=O)(O)OP(=O)(O)OP(=O)(O)O)[C@@H](O)[C@H]1O [ATP] the “malachite green phosphate release” value (LinClpA [12]) was “LinClpA primarily utilizes ATP as its substrate” and the “ANS fluorescence, % of pure LinClpA” value (LinClpA [13]) was 50%.
